Results reported in the supplement of paper PMC9112550, “Optimization of the antimicrobial peptide Bac7 by deep mutational scanning” (BMC Biology, 2022).

Tested on: Escherichia coli TOP10
Assay: shrunken log2 fold change of peptide-encoding DNA abundance (4.5 h post-induction vs induction); higher = less antimicrobial activity (less host growth inhibition)
Conditions: time post-induction: 4.5 h; library: site-saturation at positions 5, 18, 19, 20
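Also: peptides expressed intracellularly from a pBAD plasmid library in pooled LB shake-flask culture, induced with 0.3% L-arabinose, DNA abundance read by NGS, three biological replicates, DESeq2 with apeglm shrinkage.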

Row | Sequence | shrunken log2 fold change
1 | RRIRHRPPRLPRPRPRPHGFPRP | -0.0127
2 | RRIRPRPPRLPRPRPRPPGLPRP | 0.268
3 | RRIRHRPPRLPRPRPRPVGGPRP | 0.417
4 | RRIRMRPPRLPRPRPRPDHHPRP | -0.111
5 | RRIRPRPPRLPRPRPRPMGAPRP | 0.117
6 | RRIRCRPPRLPRPRPRPMMWPRP | -0.137
7 | RRIRIRPPRLPRPRPRPYDLPRP | -0.427
8 | RRIRSRPPRLPRPRPRPRETPRP | 0.124
9 | RRIRARPPRLPRPRPRPWCEPRP | 0.404
10 | RRIRKRPPRLPRPRPRPKKEPRP | 0.00375
11 | RRIRTRPPRLPRPRPRPRYHPRP | -0.573
12 | RRIRERPPRLPRPRPRPHVTPRP | -0.228
13 | RRIRERPPRLPRPRPRPDKLPRP | -1.81
14 | RRIRIRPPRLPRPRPRPIWPPRP | 0.155
15 | RRIRYRPPRLPRPRPRPMSFPRP | -0.00962
16 | RRIRPRPPRLPRPRPRPWQGPRP | -0.00211
17 | RRIRWRPPRLPRPRPRPYWVPRP | -0.294
18 | RRIRYRPPRLPRPRPRPCPMPRP | -0.476
19 | RRIRPRPPRLPRPRPRPPRCPRP | 0.408
20 | RRIRFRPPRLPRPRPRPGIHPRP | -0.0365
21 | RRIRSRPPRLPRPRPRPMGDPRP | 0.00987
22 | RRIRNRPPRLPRPRPRPMIVPRP | -0.017
23 | RRIRRRPPRLPRPRPRPYREPRP | -0.344
24 | RRIRLRPPRLPRPRPRPWCCPRP | -0.234
25 | RRIRWRPPRLPRPRPRPLRPPRP | 0.923

Row | Sequence | shrunken log2 fold change
26 | RRIRNRPPRLPRPRPRPCNKPRP | -0.334
27 | RRIRTRPPRLPRPRPRPWPYPRP | -0.157
28 | RRIRQRPPRLPRPRPRPESIPRP | 0.0598
29 | RRIRLRPPRLPRPRPRPRTCPRP | -0.258
30 | RRIRLRPPRLPRPRPRPTIFPRP | 0.205
31 | RRIRGRPPRLPRPRPRPCYVPRP | -0.0858
32 | RRIRYRPPRLPRPRPRPIGVPRP | -0.0936
33 | RRIRPRPPRLPRPRPRPWSFPRP | -0.185
34 | RRIRNRPPRLPRPRPRPQEPPRP | 0.084
35 | RRIRSRPPRLPRPRPRPMYGPRP | -0.844
36 | RRIRTRPPRLPRPRPRPHKEPRP | -0.0263
37 | RRIRGRPPRLPRPRPRPIHWPRP | 0.306
38 | RRIRRRPPRLPRPRPRPQRIPRP | -0.00231
39 | RRIRPRPPRLPRPRPRPQIGPRP | 0.128
40 | RRIRGRPPRLPRPRPRPSYPPRP | -0.215
41 | RRIRCRPPRLPRPRPRPWMLPRP | -0.419
42 | RRIRKRPPRLPRPRPRPLTRPRP | 0.31
43 | RRIRMRPPRLPRPRPRPTNMPRP | -0.0158
44 | RRIRWRPPRLPRPRPRPSYLPRP | -0.417
45 | RRIRHRPPRLPRPRPRPQCLPRP | -0.0192
46 | RRIRCRPPRLPRPRPRPHFQPRP | -0.511
47 | RRIRRRPPRLPRPRPRPPDIPRP | -0.0254
48 | RRIRERPPRLPRPRPRPVVHPRP | -0.0247
49 | RRIRDRPPRLPRPRPRPCKYPRP | 0.0244
50 | RRIRQRPPRLPRPRPRPCRMPRP | -0.126

Row | Sequence | shrunken log2 fold change
51 | RRIRLRPPRLPRPRPRPWRVPRP | 0.488
52 | RRIRGRPPRLPRPRPRPQSDPRP | 0.254
53 | RRIRTRPPRLPRPRPRPPTSPRP | 0.345
54 | RRIRPRPPRLPRPRPRPNIPPRP | -0.355
55 | RRIRIRPPRLPRPRPRPNGKPRP | -0.229
56 | RRIRGRPPRLPRPRPRPGCHPRP | 0.549
57 | RRIRCRPPRLPRPRPRPTSIPRP | -0.343
58 | RRIRQRPPRLPRPRPRPMAVPRP | 0.00724
59 | RRIRQRPPRLPRPRPRPWVKPRP | 0.0219
60 | RRIRERPPRLPRPRPRPQSSPRP | -0.533
61 | RRIRGRPPRLPRPRPRPHDPPRP | 0.546
62 | RRIRTRPPRLPRPRPRPEQFPRP | -0.0905
63 | RRIRIRPPRLPRPRPRPAYPPRP | -0.829
64 | RRIRTRPPRLPRPRPRPGLIPRP | -1.04
65 | RRIRIRPPRLPRPRPRPNDTPRP | -1.01
66 | RRIRCRPPRLPRPRPRPEWAPRP | 0.292
67 | RRIRDRPPRLPRPRPRPNQNPRP | 0.0279
68 | RRIRPRPPRLPRPRPRPGDMPRP | 0.00271
69 | RRIRWRPPRLPRPRPRPYDDPRP | -0.321
70 | RRIRARPPRLPRPRPRPQKRPRP | 0.172
71 | RRIRMRPPRLPRPRPRPQGCPRP | -0.00385
72 | RRIRNRPPRLPRPRPRPRWTPRP | 0.0415
73 | RRIRWRPPRLPRPRPRPDDNPRP | 0.174
74 | RRIRRRPPRLPRPRPRPQAEPRP | 0.0907
75 | RRIRMRPPRLPRPRPRPHYHPRP | -0.493
